# According to patent publication US20250376529A1 (Amgen, published 2025):
# Where a chain is given by its changes, count along the chain named.
# T1: Rhesus GIPR (rhesus, UniProt F7E1R9 22-466)
# T1 sequence: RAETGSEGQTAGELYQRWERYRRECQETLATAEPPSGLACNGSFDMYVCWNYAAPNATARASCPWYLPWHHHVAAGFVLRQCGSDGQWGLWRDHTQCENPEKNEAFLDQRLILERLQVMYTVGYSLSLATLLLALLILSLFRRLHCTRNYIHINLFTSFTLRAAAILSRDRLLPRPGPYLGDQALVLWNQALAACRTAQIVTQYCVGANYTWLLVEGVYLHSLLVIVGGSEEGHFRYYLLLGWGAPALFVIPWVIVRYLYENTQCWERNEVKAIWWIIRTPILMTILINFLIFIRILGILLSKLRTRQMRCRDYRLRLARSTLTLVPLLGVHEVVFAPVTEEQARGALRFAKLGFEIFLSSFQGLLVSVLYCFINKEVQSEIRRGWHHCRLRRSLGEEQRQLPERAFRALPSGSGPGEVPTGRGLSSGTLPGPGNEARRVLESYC
# B1: 18F2.012 (antibody, human IgG1, kappa, N297G, V domains shown)
# VH: not shown
# VL: DIQMTQSPSSLSASIGDRVTITCRASQDLRNYLGWYQQKPGKAPKLLIYGASSLQSGVPSRFSGSGSGTEFTLTISSLQPEDFATYYCLQHNNYPFTFGPGTKVDIKR
# B2: 4H9.004.004 (antibody, human IgG1, kappa, N297G)
# heavy: not shown
# light: DIQMTQSPSSLSASVGDRVTITCRASQGIRNELGWYQQKPGKAPKLLIYGASSLQSGVPSRFSGSGSGTEFTLTISSLQPEDFVTYYCLQHNSYPFTFGPGTKVDVKRTVAAPSVFIFPPSDEQLKSGTASVVCLLNNFYPREAKVQWKVDNALQSGNSQESVTEQDSKDSTYSLSSTLTLSKADYEKHKVYACEVTHQGLSSPVTKSFNRGEC
# B3: 6H1.004 (antibody, human IgG1, kappa, N297G, V domains shown)
# VH: not shown
# VL: B1 VL with L29I, N31D, P100Q
# notes: also called iPS:359873; iPS:359875
# B4: 6H1.002 (antibody, human IgG1, kappa, N297G, V domains shown)
# VH: not shown
# VL: B1 VL with L29I, N31D, L46R
# B5: 6H1.006 (antibody, human IgG1, kappa, N297G, V domains shown)
# VH: QVQLVESGGGVVQPGRSLRLSCAASGFTFSYFGMHWVRQAPGKGLEWVAVIWYDGSNKYYADSVKGRFTISRDNSKNTLYLQMNSLRAEDTAVYYCARDGTIFGVLLGDYWGQGTLVTVSS
# VL: B1 VL with L29I, N31D
# B6: 6H1.007 (antibody, human IgG1, kappa, N297G, V domains shown)
# VH: B5 VH with G55A
# VL: B1 VL with L29I, N31D
# B7: 4B1 (antibody, human IgG1, kappa, N297G, V domains shown)
# VH: B5 VH with Y31N, K58E, Y59N, Q82H, A88V, E89A, L106V
# VL: B1 VL with L29I, N31D, L46R
# B8: 4H9.004.001 (antibody, human IgG1, kappa, N297G)
# heavy: not shown
# light: B2 light with P100Q
# B9: 4B1.014 (antibody, human IgG1, kappa, N297G, V domains shown)
# VH: B5 VH with Y31N, K58E, Y59N, S63A, Q82H, A88V, E89A, L106V
# VL: B1 VL with L29I, N31D, P100Q
# B10: 4B1.016 (antibody, human IgG1, kappa, N297G, V domains shown)
# VH: not shown
# VL: B1 VL with L29I, N31D, P100Q
# B11: 6H1.008 (antibody, human IgG1, kappa, N297G, V domains shown)
# VH: not shown
# VL: B1 VL with L29I, N31D
# B12: 4B1.013 (antibody, human IgG1, kappa, N297G, V domains shown)
# VH: B5 VH with Y31N, G55A, K58E, Y59N, Q82H, A88V, E89A, L106V
# VL: B1 VL with L29I, N31D, P100Q
# B13: 4B1.011 (antibody, human IgG1, kappa, N297G, V domains shown)
# VH: not shown
# VL: B1 VL with L29I, N31D, L46R, P100Q
# B14: 4B1.015 (antibody, human IgG1, kappa, N297G, V domains shown)
# VH: not shown
# VL: B1 VL with L29I, N31D, P100Q
# B15: 6H1.005 (antibody, human IgG1, kappa, N297G, V domains shown)
# VH: not shown
# VL: B1 VL with L29I, N31D, P100Q
# Molecular target: T1, Rhesus GIPR
# Experiment: cell-based or functional assay
row,Rhesus GIPR CAMP Assay (Conc. mAb @ 60% Inhibition in nM) [nM],Binder
1,1.88,B1
2,0.44,B2
3,0.79,B3
4,0.31,B4
5,0.47,B5
6,0.55,B6
7,0.67,B7
8,0.43,B8
9,0.95,B9
10,1.57,B10
11,0.44,B11
12,1.35,B12
13,0.51,B13
14,0.84,B14
15,0.49,B15
